In PMC7431520:

Assays:
[1] = target: natural LAL2 protein (Lampetra japonica); assay: SDS-PAGE and western blot band identified by LC-MS/MS; lamprey serum on 12% SDS-PAGE, blot with rabbit anti-LAL2 antibody; band around 40 kDa analysed by LC-MS/MS of tryptic peptides
[2] = target: recombinant LAL2 (rLAL2) protein (Lampetra japonica); assay: SPR; rLAL2 coupled to a CM5 chip (NHS/EDC, buffer pH 4.0, blocked with ethanolamine); LIP as analyte at different concentrations in HBS-EP; Biacore T200; affinity kinetics fitting
[3] = target: lamprey immune protein (LIP) (Lampetra japonica); assay: SPR; LIP coupled to a CM5 chip (NHS/EDC, buffer pH 4.0, blocked with ethanolamine); analyte (rLAL2 or TRX) at different concentrations in HBS-EP; Biacore T200; affinity kinetics fitting

With natural LAL2 protein (natural protein) the stoichiometry N [1] was 2.

“lamprey immune protein (LIP) (natural protein)” was tested, and the Kd [2] was 0.0211 µM.

With “recombinant LAL2 (rLAL2) protein (natural protein)” the Kd [3] was 0.0558 µM.
